Source: publication PMC4298360

Key:
[1] = biological target: cynomolgus IL-2Rβγ heterodimeric Fc fusion (knobs-into-holes), biotinylated (cynomolgus) (UniProt Q38J85); test: SPR; Biacore T200; biotinylated IL2Rβγ-Fc heterodimer immobilised on streptavidin chips; 2-fold dilution series (1.2–300 nM) of IgG-IL-2 injected 2 min, dissociation up to 10 min; global fit, 1:1 interaction model
[2] = biological target: murine IL-2Rβγ heterodimeric Fc fusion (knobs-into-holes), biotinylated (murine) (UniProt P16297); test: as above
[3] = biological target: human IL-2Rβγ heterodimeric Fc fusion (knobs-into-holes), biotinylated (human) (UniProt P14784); test: as above
[4] = biological target: cynomolgus IL-2Rβγ heterodimeric Fc fusion (knobs-into-holes), biotinylated (cynomolgus) (UniProt Q38J85); test: SPR; Biacore T200; biotinylated IL2Rβγ-Fc heterodimer immobilised on streptavidin chips; 2-fold dilution series (1.2–300 nM) of IgG-(IL-2)2 injected 2 min, dissociation up to 10 min; global fit, 1:1 interaction model despite bivalent binding: apparent KD
[5] = biological target: murine IL-2Rβγ heterodimeric Fc fusion (knobs-into-holes), biotinylated (murine) (UniProt P16297); test: as above
[6] = biological target: human IL-2Rβγ heterodimeric Fc fusion (knobs-into-holes), biotinylated (human) (UniProt P14784); test: as above
[7] = biological target: cynomolgus IL-2Rβγ heterodimeric Fc fusion (knobs-into-holes), biotinylated (cynomolgus) (UniProt Q38J85)
[8] = biological target: human IL-2Rβγ heterodimeric Fc fusion (knobs-into-holes), biotinylated (human) (UniProt P14784)

Sequence of human IL-2Rβγ heterodimeric Fc fusion (knobs-into-holes), biotinylated (human) (P14784 27-240, chain 1 of 2): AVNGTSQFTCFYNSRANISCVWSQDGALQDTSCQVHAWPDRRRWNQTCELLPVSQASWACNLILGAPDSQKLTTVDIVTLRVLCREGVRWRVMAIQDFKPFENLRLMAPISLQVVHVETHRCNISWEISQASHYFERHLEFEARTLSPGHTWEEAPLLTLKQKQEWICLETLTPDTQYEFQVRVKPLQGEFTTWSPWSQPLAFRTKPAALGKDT
Sequence of human IL-2Rβγ heterodimeric Fc fusion (knobs-into-holes), biotinylated (human) (P31785 23-262, chain 2 of 2, further chain): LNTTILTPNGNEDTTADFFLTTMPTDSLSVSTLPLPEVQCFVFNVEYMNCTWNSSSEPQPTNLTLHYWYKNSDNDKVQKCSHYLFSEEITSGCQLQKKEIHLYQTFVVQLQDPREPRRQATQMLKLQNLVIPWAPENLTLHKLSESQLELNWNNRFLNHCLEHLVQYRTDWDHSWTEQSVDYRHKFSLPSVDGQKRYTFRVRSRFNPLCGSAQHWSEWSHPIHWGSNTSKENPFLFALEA
Sequence of IgG-IL-2 (monovalent fusion of wild-type human IL-2 to a non-targeted, effector-silent human IgG1) (P60568 21-153 limits assumed): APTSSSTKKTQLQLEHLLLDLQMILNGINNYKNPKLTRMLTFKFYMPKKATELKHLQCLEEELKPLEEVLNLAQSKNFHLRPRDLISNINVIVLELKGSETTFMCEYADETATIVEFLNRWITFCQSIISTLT
Sequence of IgG-(IL-2)2 (bivalent fusion of two wild-type human IL-2 to a non-targeted, effector-silent human IgG1) (P60568 21-153 limits assumed): as above
Sequence of murine IL-2Rβγ heterodimeric Fc fusion (knobs-into-holes), biotinylated (murine) (P16297 27-240, chain 1 of 2): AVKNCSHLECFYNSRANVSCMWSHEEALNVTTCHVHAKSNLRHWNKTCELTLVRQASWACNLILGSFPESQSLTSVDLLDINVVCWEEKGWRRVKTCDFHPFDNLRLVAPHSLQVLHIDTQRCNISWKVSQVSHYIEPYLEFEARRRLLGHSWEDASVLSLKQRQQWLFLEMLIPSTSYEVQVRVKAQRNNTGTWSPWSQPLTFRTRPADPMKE
Sequence of murine IL-2Rβγ heterodimeric Fc fusion (knobs-into-holes), biotinylated (murine) (P34902 23-263, chain 2 of 2, further chain): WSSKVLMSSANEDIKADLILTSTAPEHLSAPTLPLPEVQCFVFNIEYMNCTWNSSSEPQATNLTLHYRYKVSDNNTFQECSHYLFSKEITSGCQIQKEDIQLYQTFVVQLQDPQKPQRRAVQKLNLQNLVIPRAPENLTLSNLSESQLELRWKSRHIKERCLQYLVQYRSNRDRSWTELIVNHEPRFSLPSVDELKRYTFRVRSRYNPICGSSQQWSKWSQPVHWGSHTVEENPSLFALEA

Kd [1] [nM] | Kd [2] [nM] | Kd [3] [nM] | Kd [4] [nM] | Kd [5] [nM] | Kd [6] [nM] | ED50 of pSTAT5a induction in cynomolgus Tregs in whole blood (30 min, 37 °C); the receptor meant is the IL-2 receptor on the cells [7] [pM] | ED50 of pSTAT5a induction in human Tregs in whole blood (30 min, 37 °C); the receptor meant is the IL-2 receptor on the cells [8] [pM] | Substance
0.18 | 0.75 | 0.04 | – | – | – | – | – | IgG-IL-2 (monovalent fusion of wild-type human IL-2 to a non-targeted, effector-silent human IgG1) (from UniProt P60568 21-153)
– | – | – | 0.04 | 0.04 | 0.003 | 0.1 | 0.3 | IgG-(IL-2)2 (bivalent fusion of two wild-type human IL-2 to a non-targeted, effector-silent human IgG1) (from UniProt P60568 21-153)
